Measured values taken from patent US9907791B2, “Ron inhibitors for use in preventing and treating bone loss” (UNIVERSITY OF UTAH RESEARCH FOUNDATION, priority 2014, dated 2018).

How the values were obtained:
Type in all cases: cell-based, mice
[1] = tested on: bone marrow osteoclasts; assay: Osteoclast resorption assay; details: 100 pg/mL MSP daily day 9 to 12
Description: Bone marrow osteoclasts were generated from 6 to 8 week old WT and RonTK−/− mice. Briefly, bone marrow was isolated from hindlimb bones and plated in α-MEM media containing 10% heat-inactivated fetal bovine serum (FBS, Sigma, St. Louis, Mo.), 100 units/mL penicillin-streptomycin (Hyclone), and 33 ng/mL human macrophage colony-stimulating factor (hM-CSF) (PeproTech, Rocky Hill, N.J.) for 24 hours. Non-adherent cells were collected and frozen for later use. To assess resorption activity, bone marrow precursor cells were thawed and seeded at a density of 1×10^5 cells per well in BioCoat Osteologic slides (BD Biosciences, San Jose, Calif.) in α-MEM media containing 10% FBS and antibiotics. After adhering overnight, media was removed and media containing 33 ng/mL hM-CSF and 9 ng/mL muRANKL (R & D systems, Minneapolis, Minn.) was added. The medium was changed every 3 days depending on acidification, and the assay was terminated as indicated. Recombinant human MSP was prepared and added daily as indicated. Cells were removed with 6% bleach and slides were viewed microscopically using phase-contrast with 20× magnification. Osteolytic resorption area within 5 representative fields was determined using Image J software, experiments were performed in triplicate. Recombinant MSP was prepared as follows (to be described in detail elsewhere): Concentrated, serum-free media from an MCF7 cell line engineered to overexpress MSP was cleaved with kallikrein (Invitrogen, Waltham, Mass.; 4 ng of kallikrein/1 μg of supernatant protein at 37° C. for 2.5 hours). The reaction was diluted to 20 mL with 10 mM sodium phosphate, pH 7.4 and loaded onto a 5 mL HiTrap heparin column (Millipore, Billerica, Mass.) equilibrated with 20 mL of 10 mM sodium phosphate, pH 7.4, at a rate of 1 mL/min. The column was washed with 10 mL of 10 mM sodium phosphate, pH 7.4, at a rate of 1 mL/min. […]

[2] = tested on: WT bone marrow precursor cells; assay: Osteoclast differentiation (TRAP+ osteoclasts); details: 100 pg/mL MSP in presence of M-CSF and RANKL
Description: Bone marrow precursor cells were thawed and seeded at a density of 2×10^5 cells per well in a 24-well plate containing glass coverslips in α-MEM media containing 10% FBS and antibiotics. After adhering overnight, media was removed and media containing 33 ng/mL hM-CSF and 9 ng/mL muRANKL was added. Cells were allowed to differentiate for 7 days with media changed every 3 days. Coverslips were then imaged microscopically using phase contrast to determine osteoclast number in each well. To test survival, factor-containing media was removed and α-MEM media containing 10% FBS was added as well as MSP as indicated. Cells were cultured for an additional 48 hours, fixed with 10% NBF for 10 minutes and washed with 1×PBS. For TRAP fluorescent staining, the leukocyte acid phosphatase kit (Sigma, St. Louis, Mo.) was used according to the manufacturer's instructions, with the substitution of 200 μM ELF97 (Invitrogen, Waltham, Mass.) as a phosphatase substrate. […] The number of multinucleated TRAP+ cells (containing 4 or more nuclei) within 5 representative fields were included for quantification. […]
M-CSF and RANKL were present continuously beginning on day 1 until experimental analysis. […] TRAP+ cells were identified by fluorescent TRAP stain and cells with 4 or more nuclei were counted (***p<0.0001). […]

[3] = tested on: c-Src; assay: Western blot of osteoclast lysates, phospho-Src
Description: Cells were serum starved (0.5% FBS) for 3 hours prior to lysate collection. Inhibitors were added 1 hour prior to lysis and MSP was added 15 min prior to lysis when indicated. Cells were washed with 1×PBS and harvested in lysis buffer (25 mM Tris-HCl, pH 7.5, 0.42 M NaCl, 1.5 mM MgCl2, 0.5 mM EDTA, 1 mM DTT, 25% sucrose, and 0.1% Triton X-100) plus 100× protease arrest (Bioscience, Bozeman, Mont.) and 100× orthovanadate. Primary antibodies used for immunoblotting include: anti-MSP (Santa Cruz, sc-6090, Dallas, Tex.) at a 1:250 dilution, anti-pan Akt (Cell Signaling, #4691S, Beverly, Mass.) at a 1:1000 dilution, anti-pan Erk (Cell Signaling, #4695, Beverly, Mass.) at a 1:1000 dilution, anti-phospho Akt (Cell Signaling, #9271 L, Beverly, Mass.) at a 1:500 dilution, anti-phospho Erk (Cell Signaling, #4370S, Beverly, Mass.) at a 1:500 dilution, anti-Src (Cell Signaling, #2110, Beverly, Mass.) at a 1:500 dilution, and anti-phospho Src (Y416) (Cell Signaling, #2113, Beverly, Mass.) at a 1:500 dilution. The secondary antibodies used were HRP-conjugated anti-goat IgG (Santa Cruz, Dallas, Tex.) and anti-rabbit IgG (Santa Cruz, Dallas, Tex.). Chemiluminescent signals were detected using Immun-Star HRP (BioRad, Hercules, Calif.).

[4] = tested on: bone marrow osteoclasts; assay: Osteoclast survival assay; details: 100 pg/mL MSP daily from day 7 for 48 hours
Description: Bone marrow precursor cells were thawed and seeded at a density of 2×10^5 cells per well in a 24-well plate containing glass coverslips in α-MEM media containing 10% FBS and antibiotics. After adhering overnight, media was removed and media containing 33 ng/mL hM-CSF and 9 ng/mL muRANKL was added. Cells were allowed to differentiate for 7 days with media changed every 3 days. Coverslips were then imaged microscopically using phase contrast to determine osteoclast number in each well. To test survival, factor-containing media was removed and α-MEM media containing 10% FBS was added as well as MSP as indicated. Cells were cultured for an additional 48 hours, fixed with 10% NBF for 10 minutes and washed with 1×PBS. For TRAP fluorescent staining, the leukocyte acid phosphatase kit (Sigma, St. Louis, Mo.) was used according to the manufacturer's instructions, with the substitution of 200 μM ELF97 (Invitrogen, Waltham, Mass.) as a phosphatase substrate. Coverslips were incubated in TRAP solution for 15 minutes at 37 degrees, washed with 1×PBS and counterstained with DAPI. The number of multinucleated TRAP+ cells (containing 4 or more nuclei) within 5 representative fields were included for quantification. Experiments were performed in triplicate.

B1: MSP: recombinant human macrophage-stimulating protein, the RON ligand (protein)
chain: QRSPLNDFQVLRGTELQHLLHAVVPGPWQEDVADAEECAGRCGPLMDCRAFHYNVSSHGCQLLPWTQHSPHTRLRRSGRCDLFQKKDYVRTCIMNNGVGYRGTMATTVGGLPCQAWSHKFPNDHKYTPTLRNGLEENFCRNPDGDPGGPWCYTTDPAVRFQSCGIKSCREAACVWCNGEEYRGAVDRTESGRECQRWDLQHPHQHPFEPGKFLDQGLDDNYCRNPDGSERPWCYTTDPQIEREFCDLPRCGSEAQPRQEATTVSCFRGKGEGYRGTANTTTAGVPCQRWDAQIPHQHRFTPEKYACKDLRENFCRNPDGSEAPWCFTLRPGMRAAFCYQIRRCTDDVRPQDCYHGAGEQYRGTVSKTRKGVQCQRWSAETPHKPQFTFTSEPHAQLEENFCRNPDGDSHGPWCYTMDPRTPFDYCALRRCADDQPPSILDPPDQVQFEKCGKRVDRLDQRRSKLRVVGGHPGNSPWTVSLRNRQGQHFCGGSLVKEQWILTARQCFSSCHMPLTGYEVWLGTLFQNPQHGEPSLQRVPVAKMVCGPSGSQLVLLKLERSVTLNQRVALICLPPEWYVVPPGTKCEIAGWGETKGTGNDTVLNVALLNVISNQECNIKHRGRVRESEMCTEGLLAPVGACEGDYGGPLACFTHNCWVLEGIIIPNRVCARSRWPAVFTRVSVFVDWIHKVMRLG
modifications: left off: small tags and cut ends
notes: recombinant human macrophage-stimulating protein, the RON ligand
- resorptive capacity of RonTK−/− osteoclasts [1]: no effect
- resorptive capacity of WT osteoclasts [1]: significant increase
- osteoclast differentiation [2]: did not increase osteoclast differentiation
- phosphorylated c-Src in WT osteoclasts [3]: increased Src phosphorylation
- number of surviving osteoclasts without RANKL and M-CSF [4]: significantly augmented
